Measured values published in paper PMC6265350.

Experiments:
[1] = target: T1, MtrA Y102C (unphosphorylated) Y102C (UniProt P9WGM7); experiment: EMSA; conditions: 50 mM Tris-HCl pH 7.5, 50 mM NaCl, 10 mM MgCl2, 10 mM CaCl2, […]
T1 sequence: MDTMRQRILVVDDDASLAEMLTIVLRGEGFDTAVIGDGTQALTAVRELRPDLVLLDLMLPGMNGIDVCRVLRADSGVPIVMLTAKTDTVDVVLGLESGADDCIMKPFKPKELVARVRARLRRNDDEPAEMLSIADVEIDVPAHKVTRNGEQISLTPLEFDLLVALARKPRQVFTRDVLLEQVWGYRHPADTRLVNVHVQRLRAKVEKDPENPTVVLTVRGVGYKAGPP

[2] = target: T2, MtrA Y102C~P Y102C (UniProt P9WGM7); experiment: EMSA; conditions: 50 mM Tris-HCl pH 7.5, 50 mM NaCl, 10 mM MgCl2, 10 mM CaCl2, […]
T2 sequence: T1 sequence

Sequence: CTGTGCAGAGTAGGTGATCGGCGGCCCGACCGCGAGGAGCCGCGCTGTGACTGGCGGGACGAAAGTTACAGATGAAGATATTTGCGTCCGGTGTCGGTGAGCACGCTGCGCAGGATGGTTTCGATGGTGTCGAACTCGGGCTGTCCGCTAATCAGCGGGGGAGCCACCTGGACGACGGGGTCCCCGCGGTCGTCGGTG (double strand) [PdacB1]
- binding [1]: binds
- binding [2]: binds
